Where two headings read alike, the source gives them in different places.
Experiments:
[1] = biological target: FBXL6 (F-Box and Leucine Rich Repeat Protein 6) (UniProt Q8N531); test: co-IP with anti-Flag IgG, blot; details: reference: wild-type TKT; sites T287

Q: Which results are given for TKT (transketolase): K319A?
A: enzymatic_activity (ubiquitination at K319): abolishes; localisation_or_trafficking (ubiquitination at K319): changes; other (ubiquitination at K319): decreases

Q: For “TKT (transketolase) (from UniProt P29401) TKT T287A”, which “binding against the reference” value [1] is on record?
A: lost

Q: With TKT (transketolase): T287A as the substance, how does the enzymatic_activity (phosphorylation at T287) read?
A: decreases

Q: And the localisation_or_trafficking (phosphorylation at T287)?
A: changes

Q: What about the other (phosphorylation at T287) of the same substance?
A: decreases

Q: With “TKT (transketolase): VRK2 inhibition (IC261, 5 μM) or siVRK2” as the substance, how does the other (phosphorylation at T287) read?
A: decreases

Q: What does the source list for TKT (transketolase): K16A?
A: enzymatic_activity (ubiquitination at K16): abolishes; localisation_or_trafficking (ubiquitination at K16): changes; other (ubiquitination at K16): decreases
